Measurements as given in patent publication US20180215829A1 (CRESCENDO BIOLOGICS, published 2018).

Assays:
[1] = target: T1, human IL-17RA on HT1080 cells (human, UniProt Q96F46 33-866); experiment: cell-based or functional assay
T1 sequence: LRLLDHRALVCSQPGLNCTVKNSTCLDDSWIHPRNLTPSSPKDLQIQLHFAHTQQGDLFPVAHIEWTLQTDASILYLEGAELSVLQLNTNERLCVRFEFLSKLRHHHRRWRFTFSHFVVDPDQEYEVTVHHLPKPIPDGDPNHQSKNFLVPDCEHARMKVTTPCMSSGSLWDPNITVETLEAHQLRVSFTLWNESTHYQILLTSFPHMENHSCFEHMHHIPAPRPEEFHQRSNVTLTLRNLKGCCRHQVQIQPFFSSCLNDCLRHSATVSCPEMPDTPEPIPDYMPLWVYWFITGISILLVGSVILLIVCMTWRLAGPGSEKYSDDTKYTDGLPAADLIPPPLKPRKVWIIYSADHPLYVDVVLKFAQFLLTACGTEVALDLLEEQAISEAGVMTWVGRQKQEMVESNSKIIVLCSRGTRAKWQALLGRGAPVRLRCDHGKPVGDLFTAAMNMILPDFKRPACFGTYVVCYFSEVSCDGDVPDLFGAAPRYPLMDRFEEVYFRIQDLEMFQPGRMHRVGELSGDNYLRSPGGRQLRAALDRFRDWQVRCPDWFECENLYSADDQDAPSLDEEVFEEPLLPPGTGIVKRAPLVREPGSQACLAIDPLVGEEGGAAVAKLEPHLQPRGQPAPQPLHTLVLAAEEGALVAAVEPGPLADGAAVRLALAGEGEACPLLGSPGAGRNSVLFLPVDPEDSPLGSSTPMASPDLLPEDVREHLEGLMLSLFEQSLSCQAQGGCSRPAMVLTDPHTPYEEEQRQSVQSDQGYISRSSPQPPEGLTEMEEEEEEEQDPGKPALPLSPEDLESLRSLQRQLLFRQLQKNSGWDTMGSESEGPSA

[2] = target: T1, human IL-17RA on HT1080 cells; experiment: cell-based or functional assay; remark: listed apart in the source
[3] = target: T2, recombinant human IL-17RA Fc fusion protein (R&D Systems 177-IR-100) (human, UniProt Q96F46 33-320); experiment: affinity against parent clone 2.1; method not given
T2 construct: Bought protein; not shown: Fc domain of human IgG1
T2 sequence: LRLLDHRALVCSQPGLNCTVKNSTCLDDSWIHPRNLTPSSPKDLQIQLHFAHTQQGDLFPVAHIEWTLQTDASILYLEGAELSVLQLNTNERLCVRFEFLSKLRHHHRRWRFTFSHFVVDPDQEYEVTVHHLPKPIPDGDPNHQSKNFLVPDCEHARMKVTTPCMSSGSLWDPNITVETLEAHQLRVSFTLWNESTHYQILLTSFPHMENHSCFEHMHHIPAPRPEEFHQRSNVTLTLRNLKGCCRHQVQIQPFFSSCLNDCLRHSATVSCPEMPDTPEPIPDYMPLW

[4] = target: T2, recombinant human IL-17RA Fc fusion …; experiment: BIAcore T200 single-cycle kinetics, IL-17RA-Fc captured on protein G chip, VH as analyte
Method: Binding kinetics of anti-IL-17RA VH antibodies were measured on a BIAcore® T200 instrument. For IL-17RA, first a protein G chip was prepared by diluting protein G to 20 ug/ml in acetate buffer, pH 4 (BIAcore®, cat# BR-100-49) and then coupled 1200 RU to a CM5 Series S chip using amine coupling chemistry. This surface was then used to capture IL-17RA Fc fusion protein from solution: IL-17RA at 10 ug/ml in HBS injected for 10 seconds at 30 ul/min flow rate would capture approximately 100-150 RU of IL-17RA onto the protein G surface.
Binding kinetics of anti-IL-17RA VH antibodies were determined by single-cycle kinetics. VH antibodies were prepared in dilution series (typically 1:3 dilution series starting with 100 nM VH at the highest concentration), and then injected over the antigen coated surfaces and also a blank surface, starting with the lowest concentration of VH and then working progressively up to the highest concentration. VH binding kinetics were then determined from the (blank subtracted) sensorgram traces using 1:1 binding models and BIAevaluation software.

[5] = target: T2, recombinant human IL-17RA Fc fusion …; experiment: receptor/ligand biochemical inhibition ELISA: VH competes with 1 nM IL-17A for coated IL-17RA-Fc
Method: VH, both purified and crude periplasmic extracts, were also tested for their ability to inhibit the interaction of IL-17A with recombinant IL-17RA-Fc. […] Following washing of excess coating antigen, as described above, the wells of the plate were incubated with 3% Marvel/PBS to block non-specific protein interactions. VH preparations, crude periplasmic extracts or purified VH, or suitable controls, were prepared with 1 nM recombinant IL-17A (Peprotech, cat# AF-200-17) in 3% skimmed milk powder/PBS solution in polypropylene plates or tubes. The mixture was then transferred to the assay plate and incubated for 1 hour at room temperature. Excess protein was removed by washing and bound IL-17A was detected by incubation with biotinylated anti-IL-17A Mab (R & D Systems, cat BAF317) followed by the addition of neutravidin-HRP (Pierce, cat#31030) and TMB substrate (Sigma, cat# T0440). The TMB reaction was stopped by addition of 0.5M H₂SO₄ and absorbances were measured at 450 nm in a plate reader.

B1: VH clone 2.2 (VHH)
VHH: QVQLVQSGAEVKKPGASVKVSCKASGYPFTSYDINWVRQATGRSLEWMGWMNPTNGNTVYAQKFQDRVTMTRNTSISTAYMELSSLRSEDTAVYFCARGRRDDWKNNYWGQGTLVTVSS
notes: Human VH single domain antibody, no light chain; Optimised variant of clone 2.1; also called VH 2.2
IC50 (nM), cell-based assay [1]: 165 nM | Cell assay IC50 [2]: 61 nM | fold improvement in affinity against clone 2.1 [3]: 10 fold | Kd [4]: 1.4 nM | koff [4]: 0.000799 s⁻¹ | kon [4]: 579000 M⁻¹ s⁻¹ | IC50 [5]: 1.4 nM
